From patent US20020015966A1, “Effector-specific protein assembly and uses thereof” (priority 2000, published 2002)

Legend:
ER-α = assay: mammalian two-hybrid assay of ER-α helix 1-LBD interaction; format: cell-based; details: HepG2 cells, G5E1B-Luc reporter
Description: Shown are mammalian two-hybrid assays of Gal fusions containing helix 1 of ER-α with VP16 fusions of the ER LBD containing or lacking helix 1. HepG2 cells were cotransfected with G5E1B-Luc reporter, the appropriate combination of the expression vectors, and a ligand or vehicle. “E2” denotes estradiol; “4HT” denotes 4-hydroxy tamoxifen; and “ICI” denotes ICI-172,780.
HepG2 cells were maintained in Dulbecco's modified Eagle medium supplemented with 10% fetal calf serum. For transfection the cells were plated the day before into 24-well dishes at density 10^5 cells/well in DMEM supplemented with 10% charcoal-stripped serum. Transfections were performed by the calcium phosphate co-precipitation method. […] The amount of DNA was adjusted to 500 ng total per well with pBluescript vector.
The cells were washed with PBS the next morning and fresh media containing the appropriate ligands was added. The cells were harvested 24 hours later and assayed for luciferase (Molecular Probes) and β-Galactosidase activity (Tropix) on an MLX luminometer. All experiments were performed at least twice in duplicate.

[1] = molecular target: T1, GST-TR hinge fusion / TR LBD (Homo sapiens, UniProt P10828); assay: GST pulldown assay of GST-TR204-260 with in vitro translated TR236-461; format: binding; details: peptide 10 and 100 μM
T1 construct: GST pulldown assay of GST-TR204-260 with in vitro translated TR236-461; made in house; host or cells: The GST fusion was made in E. coli BL21; The LBD fragment was translated in vitro
T1 sequence (P10828 236-461): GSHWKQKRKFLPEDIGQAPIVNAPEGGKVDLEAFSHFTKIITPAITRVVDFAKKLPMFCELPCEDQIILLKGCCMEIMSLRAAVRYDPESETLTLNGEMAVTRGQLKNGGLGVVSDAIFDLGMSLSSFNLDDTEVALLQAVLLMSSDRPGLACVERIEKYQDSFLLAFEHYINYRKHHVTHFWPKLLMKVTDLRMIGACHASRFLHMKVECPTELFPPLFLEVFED
T1 sequence (P10828 204-260 partner limits assumed): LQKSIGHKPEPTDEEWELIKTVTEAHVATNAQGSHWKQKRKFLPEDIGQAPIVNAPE
Text: FIGS. 5A and 5B illustrate that N-CoR enhances the hinge-LBD interaction in the absence of ligand. In FIG. 5A, HepG2 cells were cotransfected with Gal4-hinge and VP16-LBD fusions of TR (left panel), RAR (middle panel), or RXR (right panel) in the presence or absence of Gal-RIP13ΔN4 construct and treated with the corresponding ligands or vehicle alone. […] Wt and mutant peptides of N-CoR IDI (top and bottom panels, respectively) were included where indicated at concentrations of 10 (+) and 100 (++) μM.
The appropriate GST fusion constructs were induced with […] and coupled to glutathione beads (Sepharose, Pharmacia). Interactions were performed overnight at 4° C. in buffer containing 20 mM Hepes pH 7.6, 100 mM NaCl, 20% glycerol, 2 mg/ml BSA, 1 mM DTT, and various protease inhibitors. The beads were subsequently washed twice with the interaction buffer containing 0.05% Triton X-100 and once with 50 mM Tris-HCl pH 8. Ligands or peptides were included in the washes where appropriate. The bound proteins were eluted with 15 mM glutathione (Sigma) for 15 minutes at 37° C. and analyzed by SDS-PAGE and fluorography (Amplify, Amersham). The sequence of the N-CoR RID peptide was […].

TR 204-461 = molecular target: T2, TR 204-461 (Homo sapiens, UniProt P10828); assay: protease digestion assay (trypsin) of TR LBD; format: biochemical; details: in the absence of ligand; 1 mM peptide, trypsin 7 minutes at room temperature
T2 construct: Flag (N); made in house; host or cells: in vitro translation
T2 sequence (P10828 204-461): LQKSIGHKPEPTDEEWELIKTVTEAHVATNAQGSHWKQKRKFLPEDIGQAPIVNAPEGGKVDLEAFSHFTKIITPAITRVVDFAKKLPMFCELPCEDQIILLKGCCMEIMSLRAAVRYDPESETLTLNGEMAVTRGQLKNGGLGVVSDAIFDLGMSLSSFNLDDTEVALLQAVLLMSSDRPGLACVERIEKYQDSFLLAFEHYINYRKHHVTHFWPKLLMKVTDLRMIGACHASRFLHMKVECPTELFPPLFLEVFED
Description: The mixture was digested with trypsin for 7 minutes at room temperature and analyzed by SDS-PAGE.
Subsequently, wild-type or mutated N-CoR peptides were added to final concentrations of 1 mM, and the reaction mixtures was further incubated for 30 minutes on ice. BSA was added to the reactions with no peptides to supplement for equal protein concentration in all the reaction mixtures. Finally, […] of trypsin was added to the indicated tubes, and the protein digestion was performed at room temperature for 7 minutes. The reactions were stopped with the addition of SDS-sample buffer and boiling. The samples were run on a 15% SDS-gel that was then dried and exposed to film for 1 hour.

Row | Substance | hinge-LBD interaction of ER-α (ER-α) | interaction between a GST-TR hinge fusion and the TR LBD ([1]; in the absence of ligand) | interaction between a GST-TR hinge fusion and the TR LBD ([1]; in the presence of ligand) | new protease resistant species with a lower molecular weight (TR 204-461) | stabilization of TR LBD fragment against trypsin digestion (TR 204-461)
1 | 4-hydroxy tamoxifen | stronger effect | – | – | – | –
2 | ASNLGEDIIKALMGSFDD [wild type NCoR RID I peptide] | – | strongly stimulated | did not affect | presence of a new protease resistant species | some apparent stabilization
